Test results from patent US6413943.

Experiments:
CDK4/cyclin D1 complex = CDK4/cyclin D1 complex (UniProt P11802); experiment: cell-based or functional assay
CDK2/cyclin E = CDK2/cyclin E (UniProt P24941); experiment: in vitro kinase assay; mixture of p27 and p16
CDC2/cyclin B = CDC2/cyclin B (UniProt P06493); experiment: in vitro kinase assay; mixture of p27 and p16
CDK2/cyclin E complex = CDK2/cyclin E complex (UniProt P24941); experiment: cell-based or functional assay
CDC2/cyclin B complex = CDC2/cyclin B complex (UniProt P06493); experiment: cell-based or functional assay
Sequence of CDC2/cyclin B complex (P06493 whole entry, one chain of several): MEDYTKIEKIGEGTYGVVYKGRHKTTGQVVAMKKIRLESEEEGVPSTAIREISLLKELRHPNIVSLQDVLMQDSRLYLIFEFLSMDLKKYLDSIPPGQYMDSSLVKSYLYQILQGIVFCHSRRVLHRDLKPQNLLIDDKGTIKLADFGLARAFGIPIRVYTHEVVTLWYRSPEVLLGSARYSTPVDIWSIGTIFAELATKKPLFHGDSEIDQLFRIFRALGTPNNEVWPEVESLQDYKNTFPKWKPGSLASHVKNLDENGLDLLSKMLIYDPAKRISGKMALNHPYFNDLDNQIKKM

CDK2/cyclin A complex = CDK2/cyclin A complex (UniProt P24941); experiment: cell-based or functional assay

Sequence of CDK4/cyclin D1 complex (P11802 whole entry, chain 1 of 2): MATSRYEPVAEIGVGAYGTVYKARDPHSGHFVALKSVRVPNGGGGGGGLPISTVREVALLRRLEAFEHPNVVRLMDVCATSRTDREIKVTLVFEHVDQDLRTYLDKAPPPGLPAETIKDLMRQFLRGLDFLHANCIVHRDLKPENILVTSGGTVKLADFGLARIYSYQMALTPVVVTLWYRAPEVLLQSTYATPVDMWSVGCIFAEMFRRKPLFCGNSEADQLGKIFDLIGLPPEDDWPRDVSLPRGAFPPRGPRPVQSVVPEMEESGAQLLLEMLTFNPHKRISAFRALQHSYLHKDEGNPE
Sequence of CDK4/cyclin D1 complex (P24385 whole entry, chain 2 of 2, further chain): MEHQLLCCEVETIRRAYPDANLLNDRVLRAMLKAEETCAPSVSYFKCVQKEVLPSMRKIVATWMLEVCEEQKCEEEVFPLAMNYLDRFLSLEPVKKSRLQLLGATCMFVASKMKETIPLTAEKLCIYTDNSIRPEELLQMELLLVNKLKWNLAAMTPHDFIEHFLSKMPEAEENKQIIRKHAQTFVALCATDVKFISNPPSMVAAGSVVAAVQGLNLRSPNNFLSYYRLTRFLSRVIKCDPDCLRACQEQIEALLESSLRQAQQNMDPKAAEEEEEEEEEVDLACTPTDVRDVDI
Sequence of CDC2/cyclin B (P06493 whole entry): as the sequence (P06493 whole entry, one chain of several) above

Substance	IC50, in vitro kinase activity (GST-Rb phosphorylation) (CDK4/cyclin D1 complex)	IC50 (CDK2/cyclin E)	IC50 (CDC2/cyclin B)	IC50, in vitro kinase activity (GST-Rb phosphorylation) (CDK2/cyclin E complex)	IC50, in vitro kinase activity (histone H1 phosphorylation) (CDC2/cyclin B complex)	IC50, in vitro kinase activity (CDK2/cyclin A complex)
human p27 (from UniProt P46527 1-198)	63 nM					
p27 + p16		1.7 nM	12 nM			
p27-p16 fusion protein	25 nM			30 nM	15 nM	25 nM
